For this test, the target named is His-ezrin WT (UniProt P15311 1-586). Description: pull-down.
His-ezrin WT, sequence (P15311 whole entry): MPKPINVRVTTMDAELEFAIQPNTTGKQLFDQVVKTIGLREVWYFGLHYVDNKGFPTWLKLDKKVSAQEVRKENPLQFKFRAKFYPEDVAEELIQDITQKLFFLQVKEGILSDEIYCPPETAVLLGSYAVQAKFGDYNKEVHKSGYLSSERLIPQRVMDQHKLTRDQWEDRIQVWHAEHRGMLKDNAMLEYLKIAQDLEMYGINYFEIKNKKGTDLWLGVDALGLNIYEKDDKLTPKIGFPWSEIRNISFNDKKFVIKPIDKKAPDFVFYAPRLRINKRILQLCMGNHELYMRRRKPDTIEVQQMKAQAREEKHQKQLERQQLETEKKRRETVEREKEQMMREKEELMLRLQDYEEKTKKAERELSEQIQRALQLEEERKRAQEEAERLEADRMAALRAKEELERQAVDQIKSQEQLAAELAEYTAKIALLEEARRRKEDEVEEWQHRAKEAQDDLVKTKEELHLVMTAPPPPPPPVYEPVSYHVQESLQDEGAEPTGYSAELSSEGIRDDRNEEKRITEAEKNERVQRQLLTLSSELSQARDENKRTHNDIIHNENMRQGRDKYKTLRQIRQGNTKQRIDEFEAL

B1: GST-EBP50-CT (domain or fragment)
chain: KENSREALAEAALESPRPALVRSASSDTSEELNSQDSPPKQDSTAPSSTSSSDPILDFNISLAMAKERAHQKRSSKRAPQMDWSKKNELFSNL
With B1, the binding result is “binds”.

B2: GST-ICAM2-CT (domain or fragment)
chain: FGQHLRQQRMGTYGVRAAWRRLPQAFRP
For the molecule B2, the binding result is “binds”.
